Reference: US7910549

Target: monoclonal antibody M75 (MAb M75), secreted by hybridoma VU-M75, ATCC HB 11128
Experiment: competition ELISA (peptide against immobilized GST-MN for M75)

- IC50: 1 ng/mL
Binder: GGSSGEDDPLGEEDLPSEEDSP [oligopeptide … (aa 51-72) [SEQ ID NO: 104]]
